Reference: the supplement of paper PMC7877785
± gives the uncertainty stated by the source.

Test: self-splicing fitness, log relative to wild type (ln ratio); higher = more splicing; Tetrahymena group I intron in knt gene, E. coli kanamycin selection, DiMSum; sequences stand for … in CUCUCU…GGAGGGAAAAGUUAUCAGGCAUGCACCUGGUAGCUAGUCUUUAAACCAAUAGAUUGCAUCGGUUUAAAAGGCAAGACCGUCAAAUUGCGGGAAAGGGGUCAACAGCCGUUCAGUACCAAGUCUCAGGGGAAACUUUGAGAUGGCCUUGCAAAGGGUAUGGUAAUAAGCUGACGGACAUGGUCCUAACCACGCAGCCAAGUCCUAAGUCAACAGAUCUUCUGUUGAUAUGGAUGCAGUUCACAGACUAAAUGUCGGUCGGGGAAGAUGUAUUCUUCUCAUAAGAUAUAGUCGGACCUCUCCUUAAUGGGAGCUAGCGGAUGAAGUGAUGCAACACUGGAGCCGCUGGGAACUAAUUUGUAUGCGAAAGUAUAUUGAUUAGUUUUGGAGUACUCGUGGUCG
Outline: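 Colonies from six replicate transformations of E. coli BL21(DE3) were pooled and amplicon-sequenced on an Illumina HiSeq 2500. The library placed an intron with all eight P1ex-region nucleotides randomised inside the knt kanamycin-resistance gene on pET-22b(+), and cells grew overnight at 37°C or 30°C on LB agar with or without 25 μg/mL kanamycin (plus 100 μg/mL carbenicillin, 50 μM IPTG, 0.2% rhamnose). Fitness is the DiMSum error-weighted combination of wild-type-normalised replicate fold changes, kanamycin versus none.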

| Sequence | self-splicing fitness (ln) (30 °C) | self-splicing fitness (ln) (37 °C) |
| --- | --- | --- |
| CGCUAGCAAUAUUACGCGUU | -1.99 ± 0.15 | -2.51 ± 0.29 |
| AGCUAGCAAUAUUACGUCAA | -4.05 ± 0.41 | -2 ± 0.16 |
| UGCAAGCAAUAUUACGUAAG | -2.75 ± 0.13 | -2.64 ± 0.2 |
| ACCGAGCAAUAUUACGUCAU | -5.01 ± 0.34 | -2.68 ± 0.14 |
| GCGGAGCAAUAUUACGACCA | – | -1.68 ± 0.41 |
| CCGCAGCAAUAUUACGUCAU | -3.18 ± 0.15 | -2.25 ± 0.2 |
| CAUGAGCAAUAUUACGAGAA | -0.549 ± 0.29 | – |
| UGGGAGCAAUAUUACGUAGA | -2.19 ± 0.26 | – |
| AUCAAGCAAUAUUACGCGGG | -2.86 ± 0.14 | -1.04 ± 0.12 |
| CGUGAGCAAUAUUACGGCCA | -2.35 ± 0.49 | – |
| AGUCAGCAAUAUUACGGUCU | -0.851 ± 0.06 | -0.146 ± 0.068 |
| UAAUAGCAAUAUUACGAUGG | -3.31 ± 0.16 | -1.18 ± 0.13 |
| AGCGAGCAAUAUUACGGUGU | -2.55 ± 0.24 | -2.37 ± 0.24 |
| CUCCAGCAAUAUUACGUACU | -3.3 ± 0.29 | -3.21 ± 0.28 |
| CUCAAGCAAUAUUACGAGGG | – | -2.8 ± 0.43 |
| GUAAAGCAAUAUUACGAAUG | -2.8 ± 0.14 | -1.23 ± 0.2 |
| GCAGAGCAAUAUUACGAAGG | -4.31 ± 0.46 | -1.42 ± 0.26 |
| GCAAAGCAAUAUUACGGGCA | -1.3 ± 0.085 | -0.907 ± 0.079 |
| UGUUAGCAAUAUUACGCAUU | -2.6 ± 0.27 | -1.47 ± 0.2 |
| GAAAAGCAAUAUUACGGGGU | -3.91 ± 0.26 | -2.32 ± 0.23 |
| AGAGAGCAAUAUUACGCACC | 0.805 ± 0.35 | – |
| UGCCAGCAAUAUUACGUAGC | -3.9 ± 0.37 | -1.64 ± 0.17 |
| CUGGAGCAAUAUUACGACCA | -1.68 ± 0.31 | -1.61 ± 0.38 |
| AACAAGCAAUAUUACGUCGA | -1.27 ± 0.087 | -0.532 ± 0.092 |
| CCACAGCAAUAUUACGGCAC | -4.06 ± 0.21 | -2.87 ± 0.22 |

| Sequence | self-splicing fitness (ln) (30 °C) | self-splicing fitness (ln) (37 °C) |
| --- | --- | --- |
| GUGCAGCAAUAUUACGGUUC | -0.353 ± 0.075 | -0.684 ± 0.11 |
| AUGUAGCAAUAUUACGUCGU | -3.28 ± 0.24 | -0.241 ± 0.12 |
| UGCUAGCAAUAUUACGGCGU | -3.57 ± 0.22 | -1.89 ± 0.17 |
| CUCGAGCAAUAUUACGUUCC | -3.4 ± 0.19 | -2.63 ± 0.27 |
| GUCGAGCAAUAUUACGUUGC | -2.19 ± 0.2 | -2.25 ± 0.41 |
| CGGUAGCAAUAUUACGGCCG | -3.76 ± 0.24 | -0.985 ± 0.2 |
| UUUGAGCAAUAUUACGGUCU | – | -2.63 ± 0.41 |
| AGAGAGCAAUAUUACGGUGA | -3.54 ± 0.38 | – |
| CGCGAGCAAUAUUACGUAGA | -3.09 ± 0.15 | -2.93 ± 0.23 |
| UUAUAGCAAUAUUACGUAUG | -1.03 ± 0.12 | -0.187 ± 0.15 |
| UUAAAGCAAUAUUACGCUAU | -3.01 ± 0.14 | -0.748 ± 0.1 |
| CCUAAGCAAUAUUACGCAGC | -3.07 ± 0.29 | -2.46 ± 0.24 |
| UUAUAGCAAUAUUACGGAUA | -2.21 ± 0.32 | -0.955 ± 0.19 |
| UCAGAGCAAUAUUACGGGCG | -2.45 ± 0.17 | -2 ± 0.25 |
| UGCCAGCAAUAUUACGUGAG | -2.12 ± 0.11 | -0.54 ± 0.097 |
| CUUCAGCAAUAUUACGGGAU | -2.14 ± 0.084 | -1.34 ± 0.095 |
| AAGCAGCAAUAUUACGUGCC | -1.23 ± 0.11 | -1.47 ± 0.12 |
| ACGUAGCAAUAUUACGUGAG | -3.75 ± 0.17 | -2.55 ± 0.14 |
| ACCCAGCAAUAUUACGGAGA | -0.451 ± 0.048 | 0.122 ± 0.063 |
| GAUGAGCAAUAUUACGAAUG | -2.71 ± 0.21 | -2.67 ± 0.34 |
| CUUCAGCAAUAUUACGCAGG | -4.17 ± 0.34 | -2.07 ± 0.26 |
| CCGAAGCAAUAUUACGUUCU | -3.84 ± 0.26 | -3.37 ± 0.24 |
| CAUUAGCAAUAUUACGUCAC | – | -1.63 ± 0.44 |
| AUAUAGCAAUAUUACGUGCC | -1.82 ± 0.38 | -1.01 ± 0.41 |
| GUUCAGCAAUAUUACGAAAC | -1.48 ± 0.23 | -0.734 ± 0.22 |

| Sequence | self-splicing fitness (ln) (30 °C) | self-splicing fitness (ln) (37 °C) |
| --- | --- | --- |
| ACAUAGCAAUAUUACGACAU | -0.718 ± 0.011 | -0.22 ± 0.032 |
| AUCCAGCAAUAUUACGGUAA | -1.02 ± 0.076 | -0.567 ± 0.073 |
| UCCCAGCAAUAUUACGGCGC | -1.67 ± 0.091 | -0.401 ± 0.14 |
| GCUGAGCAAUAUUACGCUGG | -3.26 ± 0.31 | -2.22 ± 0.42 |
| AUCGAGCAAUAUUACGGUAC | – | -2.51 ± 0.41 |
| UGACAGCAAUAUUACGUCCU | -0.124 ± 0.076 | 0.379 ± 0.099 |
| AUCGAGCAAUAUUACGCCAC | – | -2.54 ± 0.45 |
| CAGAAGCAAUAUUACGCUAU | -3.4 ± 0.16 | -3.04 ± 0.16 |
| AACGAGCAAUAUUACGAUUG | -4.09 ± 0.23 | -1.56 ± 0.23 |
| UACCAGCAAUAUUACGUACA | -0.719 ± 0.071 | -0.432 ± 0.1 |
| UUUGAGCAAUAUUACGGUUU | -3.23 ± 0.48 | -1.92 ± 0.32 |
| AAGUAGCAAUAUUACGCUUU | -3.18 ± 0.24 | -3.19 ± 0.47 |
| CGUGAGCAAUAUUACGAUUU | – | -2.24 ± 0.29 |
| AUAUAGCAAUAUUACGUGCA | -1.57 ± 0.16 | 0.00562 ± 0.16 |
| AGAUAGCAAUAUUACGCGAC | -2.67 ± 0.29 | -1.21 ± 0.39 |
| GUAUAGCAAUAUUACGAAGU | -3.25 ± 0.21 | -1.81 ± 0.18 |
| AAAGAGCAAUAUUACGGCCU | -2.16 ± 0.13 | -0.199 ± 0.13 |
| CGAUAGCAAUAUUACGCAAA | -2.98 ± 0.29 | -1.92 ± 0.15 |
| UUCUAGCAAUAUUACGUUUG | -3.49 ± 0.35 | -2.66 ± 0.4 |
| CUUAAGCAAUAUUACGAUGU | -3.88 ± 0.37 | -0.792 ± 0.21 |
| AGACAGCAAUAUUACGGGAU | -1.22 ± 0.098 | -1.71 ± 0.14 |
| UCGCAGCAAUAUUACGACUC | -3.5 ± 0.27 | -2.32 ± 0.27 |
| GGAGAGCAAUAUUACGACGC | -0.0524 ± 0.081 | -0.0426 ± 0.092 |
| AGGUAGCAAUAUUACGGCUC | -0.672 ± 0.017 | -0.185 ± 0.036 |
| GGGCAGCAAUAUUACGUCCC | -2.38 ± 0.46 | – |

| Sequence | self-splicing fitness (ln) (30 °C) | self-splicing fitness (ln) (37 °C) |
| --- | --- | --- |
| UAGUAGCAAUAUUACGAUGA | -1.59 ± 0.26 | -1.7 ± 0.28 |
| UUUAAGCAAUAUUACGGCCG | -0.19 ± 0.21 | -0.0514 ± 0.26 |
| CGCGAGCAAUAUUACGUAAC | -2.76 ± 0.41 | -1.76 ± 0.27 |
| GGGCAGCAAUAUUACGCGGU | -3.4 ± 0.19 | -1.77 ± 0.27 |
| UUCAAGCAAUAUUACGGUAG | -0.693 ± 0.096 | -0.128 ± 0.13 |
| GUGGAGCAAUAUUACGUGAC | – | 1.74 ± 0.35 |
| UCACAGCAAUAUUACGUCAA | -2.7 ± 0.17 | -1.46 ± 0.13 |
| CGGGAGCAAUAUUACGGGUG | -3.26 ± 0.28 | -2.07 ± 0.28 |
| UAUCAGCAAUAUUACGCGCC | -1.34 ± 0.18 | -0.193 ± 0.26 |
| UCGCAGCAAUAUUACGACCG | -0.544 ± 0.11 | -0.235 ± 0.15 |
| AUAAAGCAAUAUUACGUAAG | -2.08 ± 0.1 | -0.84 ± 0.11 |
| GAUCAGCAAUAUUACGAGGG | -1.99 ± 0.11 | -2.17 ± 0.18 |
| CCUUAGCAAUAUUACGGGAU | -3.68 ± 0.29 | -2.68 ± 0.27 |
| GGACAGCAAUAUUACGCUUG | -1.45 ± 0.094 | -0.762 ± 0.11 |
| UGAUAGCAAUAUUACGUCCA | 0.015 ± 0.09 | 0.154 ± 0.12 |
| CUGCAGCAAUAUUACGUCCG | -0.43 ± 0.094 | 0.136 ± 0.13 |
| UCCGAGCAAUAUUACGAAUA | -2.95 ± 0.25 | – |
| AAUCAGCAAUAUUACGGCCC | -0.563 ± 0.18 | 0.491 ± 0.2 |
| GGACAGCAAUAUUACGACGA | -1.77 ± 0.16 | -0.403 ± 0.19 |
| ACCGAGCAAUAUUACGGUUU | -3.42 ± 0.14 | -2.35 ± 0.18 |
| UUCCAGCAAUAUUACGCCCU | – | -2.93 ± 0.49 |
| CCGGAGCAAUAUUACGGUAC | -2.73 ± 0.22 | -2.25 ± 0.4 |
| UCAUAGCAAUAUUACGAACU | -2.36 ± 0.33 | -2.08 ± 0.26 |
| AACGAGCAAUAUUACGUCCA | -2.92 ± 0.3 | -1.92 ± 0.21 |
| GACGAGCAAUAUUACGAUUU | -0.943 ± 0.085 | -1.19 ± 0.098 |
